{"source": "patent US20210130437A1", "key": {"CD96 [1]": {"target": "T1, CD96 (UniProt P40200)", "T1 sequence (looked up)": "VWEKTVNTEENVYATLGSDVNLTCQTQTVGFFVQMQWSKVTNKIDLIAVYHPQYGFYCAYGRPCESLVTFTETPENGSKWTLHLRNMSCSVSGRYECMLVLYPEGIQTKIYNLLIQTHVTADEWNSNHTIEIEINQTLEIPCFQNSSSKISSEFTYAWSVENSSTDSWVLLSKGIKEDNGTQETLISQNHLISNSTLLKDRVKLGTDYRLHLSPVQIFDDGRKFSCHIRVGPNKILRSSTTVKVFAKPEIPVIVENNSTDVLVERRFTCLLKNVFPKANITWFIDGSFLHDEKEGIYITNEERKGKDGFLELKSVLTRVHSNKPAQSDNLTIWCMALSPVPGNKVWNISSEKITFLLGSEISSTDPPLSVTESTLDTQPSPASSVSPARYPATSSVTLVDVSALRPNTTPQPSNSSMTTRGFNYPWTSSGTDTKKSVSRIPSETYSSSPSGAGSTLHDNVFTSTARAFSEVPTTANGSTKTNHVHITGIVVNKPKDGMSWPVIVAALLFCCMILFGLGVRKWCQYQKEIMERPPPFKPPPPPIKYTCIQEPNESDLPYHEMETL", "test": "flow cytometry, CD96-expressing cells, secondary reagent alone"}, "[2]": {"target": "CD226 (Homo sapiens (Human)) (UniProt Q15762)", "sequence (Q15762 19-336)": "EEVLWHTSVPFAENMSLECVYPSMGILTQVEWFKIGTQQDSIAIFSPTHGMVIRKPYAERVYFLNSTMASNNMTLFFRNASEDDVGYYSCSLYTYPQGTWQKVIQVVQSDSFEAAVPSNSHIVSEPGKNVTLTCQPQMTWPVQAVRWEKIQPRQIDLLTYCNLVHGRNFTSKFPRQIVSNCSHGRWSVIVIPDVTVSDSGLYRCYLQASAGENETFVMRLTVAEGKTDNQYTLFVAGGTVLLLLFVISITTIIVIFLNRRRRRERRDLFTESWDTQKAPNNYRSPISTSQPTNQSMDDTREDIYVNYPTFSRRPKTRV", "test": "flow cytometry, CD226-expressing cells, secondary reagent alone"}, "[3]": {"target": "TIGIT (Homo sapiens (Human)) (UniProt Q495A1)", "sequence (Q495A1 22-244)": "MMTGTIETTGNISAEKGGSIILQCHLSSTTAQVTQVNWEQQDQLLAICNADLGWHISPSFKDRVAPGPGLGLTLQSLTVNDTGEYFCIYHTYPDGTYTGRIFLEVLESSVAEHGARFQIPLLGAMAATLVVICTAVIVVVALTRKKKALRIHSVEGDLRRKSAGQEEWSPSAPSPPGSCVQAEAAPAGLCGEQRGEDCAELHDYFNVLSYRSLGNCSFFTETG", "test": "flow cytometry, TIGIT-expressing cells, secondary reagent alone"}, "CD112R [4]": {"target": "CD112R (UniProt Q6DKI7)", "sequence (Q6DKI7 whole entry)": "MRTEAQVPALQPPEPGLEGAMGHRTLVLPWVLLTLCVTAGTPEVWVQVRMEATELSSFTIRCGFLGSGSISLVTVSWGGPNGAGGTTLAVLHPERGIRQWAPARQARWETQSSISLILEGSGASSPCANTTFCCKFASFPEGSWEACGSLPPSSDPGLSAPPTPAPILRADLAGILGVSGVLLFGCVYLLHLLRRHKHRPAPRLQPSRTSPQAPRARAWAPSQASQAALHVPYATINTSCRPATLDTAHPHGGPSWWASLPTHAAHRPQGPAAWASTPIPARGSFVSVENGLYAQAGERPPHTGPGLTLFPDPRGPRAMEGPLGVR", "test": "flow cytometry, CD112R-expressing cells, secondary reagent alone"}, "CD96 [5]": {"target": "T1, CD96", "test": "flow cytometry, 100 nM Fc fusion on cells expressing CD96"}, "[6]": {"target": "human PD-1 and human TIGIT co-expressed on Jurkat cells (Jurkat/PD-1/TIGIT cells) (human)", "sequence (chain, as listed by the source, chain 1 of 2)": "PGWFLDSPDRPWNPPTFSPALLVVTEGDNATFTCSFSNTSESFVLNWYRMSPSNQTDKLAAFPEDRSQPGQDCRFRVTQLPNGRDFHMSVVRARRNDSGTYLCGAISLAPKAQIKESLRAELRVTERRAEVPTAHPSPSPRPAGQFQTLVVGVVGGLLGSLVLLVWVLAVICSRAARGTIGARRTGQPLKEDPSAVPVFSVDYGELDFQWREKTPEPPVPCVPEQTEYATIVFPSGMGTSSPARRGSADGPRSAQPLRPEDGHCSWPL", "sequence (chain, as listed by the source, chain 2 of 2)": "as the sequence (Q495A1 22-244) above", "test": "flow cytometry, Jurkat/PD-1/TIGIT cells"}, "[7]": {"target": "human PD-1 expressed on cells (Jurkat/PD-1 cells) (human) (UniProt Q15116)", "sequence (Q15116 21-288)": "as the sequence (chain, as listed by the source, chain 1 of 2) above", "test": "flow cytometry, Jurkat/PD-1 cells"}, "[8]": {"target": "human TIGIT expressed on cells (Jurkat/TIGIT cells) (human) (UniProt Q495A1)", "sequence (Q495A1 22-244)": "as the sequence (Q495A1 22-244) above", "test": "flow cytometry, Jurkat/TIGIT cells"}, "[9]": {"target": "rB7H6.Fc (recombinant B7-H6 Fc fusion protein, R&D Systems) (human) (UniProt Q68D85)", "sequence (Q68D85 25-262 limits assumed)": "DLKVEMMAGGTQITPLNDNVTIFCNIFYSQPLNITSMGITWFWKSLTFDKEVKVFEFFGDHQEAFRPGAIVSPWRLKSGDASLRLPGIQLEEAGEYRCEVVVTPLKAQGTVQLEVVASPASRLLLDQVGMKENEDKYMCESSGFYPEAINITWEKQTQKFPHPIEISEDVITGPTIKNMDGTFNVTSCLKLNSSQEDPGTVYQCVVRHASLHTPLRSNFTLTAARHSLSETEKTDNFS", "test": "flow cytometry of yeast-displayed parental NKp30 stained with […] rB7H6.Fc"}, "CD112R [10]": {"target": "CD112R (UniProt Q6DKI7)", "test": "flow cytometry, CD112R-expressing cells, 100 nM"}, "[11]": {"target": "PD-1 stably expressed on Jurkat/IL-2 reporter cells (Jurkat/PD-1) (human) (UniProt Q15116)", "sequence (Q15116 25-288)": "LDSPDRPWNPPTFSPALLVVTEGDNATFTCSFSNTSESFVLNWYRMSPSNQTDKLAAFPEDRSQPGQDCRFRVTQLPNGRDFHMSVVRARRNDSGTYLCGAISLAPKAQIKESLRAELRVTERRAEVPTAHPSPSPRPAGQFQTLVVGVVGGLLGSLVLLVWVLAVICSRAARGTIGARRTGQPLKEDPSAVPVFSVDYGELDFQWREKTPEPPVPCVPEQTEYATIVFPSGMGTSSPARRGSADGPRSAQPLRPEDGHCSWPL", "test": "cell-based or functional assay"}}}
{"substance": "Anti-hFc PE (antibody)", "values": [{"measurement": "MFI at 20 nM", "setting": "CD96 [1]", "value": 1060}, {"measurement": "MFI at 20 nM", "setting": "[2]", "value": 1010}, {"measurement": "MFI at 20 nM", "setting": "[3]", "value": 1140}, {"measurement": "MFI at 20 nM", "setting": "CD112R [4]", "value": 1010}]}
{"substance": "CD112 variant IgV-Fc fusion V19A, N47K, N106Y, K116E, S118Y", "values": [{"measurement": "MFI at 100 nM", "setting": "CD96 [5]", "value": 2850}]}
{"substance": "Fc Control (heterodimer) (from UniProt P0DOX5 218-449; P0DOX5 218-449)", "values": [{"measurement": "MFI at 6.25 nM", "setting": "[6]", "value": 48, "unit": "MFI"}]}
{"substance": "Fc Control (homodimer) (from UniProt P0DOX5 218-449)", "values": [{"measurement": "MFI at 6.25 nM", "setting": "[6]", "value": 66, "unit": "MFI"}]}
{"substance": "Human IgG (irrelevant Ig control) (antibody)", "values": [{"measurement": "Fold increase over wildtype PD-L1 IgV-Fc", "setting": "[7]", "value": 0, "unit": "fold"}, {"measurement": "MFI at 6.25 nM", "setting": "[7]", "value": 41, "unit": "MFI"}, {"measurement": "MFI at 50 nM", "setting": "[7]", "value": 198, "unit": "MFI"}, {"measurement": "MFI at 6.25 nM", "setting": "[8]", "value": 48, "unit": "MFI"}, {"measurement": "MFI at 6.25 nM", "setting": "[6]", "value": 41, "unit": "MFI"}]}
{"substance": "PD-L1 variant IgV-Fc I20L/K28E/D43G/N45D/V58A/Q89R (Fc fusion)", "values": [{"measurement": "Fold increase over wildtype PD-L1 IgV-Fc", "setting": "[7]", "value": 15.4, "unit": "fold"}, {"measurement": "MFI at 50 nM", "setting": "[7]", "value": 80500, "unit": "MFI"}]}
{"substance": "Wild Type CD155 full ECD Fc (from UniProt P15151 21-343) (Fc fusion)", "values": [{"measurement": "MFI at 6.25 nM", "setting": "[6]", "value": 249, "unit": "MFI"}]}
{"substance": "Wild Type PD-L2 full ECD Fc (from UniProt Q9BQ51 20-220) (Fc fusion)", "values": [{"measurement": "MFI at 6.25 nM", "setting": "[6]", "value": 314, "unit": "MFI"}]}
{"substance": "parental NKp30 strain (wild-type NKp30 IgC-like domain displayed on yeast) (from UniProt O14931 19-134) (receptor)", "values": [{"measurement": "MFI", "setting": "[9]", "value": 90}]}
{"substance": "variant CD112 IgV-Fc R12W, Y33H, Q79R, V101M, A112V (Fc fusion)", "values": [{"measurement": "MFI at 100 nM", "setting": "CD112R [10]", "value": 2050}]}
{"substance": "variant CD112 IgV-Fc Y33H, A112V, S118Y (Fc fusion)", "values": [{"measurement": "MFI at 100 nM", "setting": "CD112R [10]", "value": 2350}]}
{"substance": "variant PD-L2 IgV-Fc H15Q/T47A/K65R/S67L/Q82R/V89D (Fc fusion)", "values": [{"measurement": "MFI at 6.25 nM", "setting": "[6]", "value": 20300, "unit": "MFI"}]}
{"substance": "variant PD-L2 IgV-Fc I13V,H15Q,T47A,E58G,S67L,Q82R,V89D (Fc fusion)", "values": [{"measurement": "Fold increase over wildtype PD-L2 IgV-Fc (IFN gamma, MLR)", "setting": "[11]", "value": 0.61, "unit": "fold"}, {"measurement": "IFN gamma levels pg/mL (MLR)", "setting": "[11]", "value": 836, "unit": "pg/mL"}]}
